The results in this text go back to paper doi:10.1101/2025.11.28.691101, “Interaction and co-phase separation of SARS-CoV-2 nucleocapsid protein and human hnRNPA1 and its implications for viral life cycle” (bioRxiv, 2025).

For assay [1], the target named is T1, SARS-CoV-2 nucleocapsid (N) protein, full-length, N-terminally 6xHis-tagged (SARS-CoV-2, UniProt P0DTC9 1-419).
T1 construct: SARS-CoV-2 nucleocapsid (N) protein, full-length, residues 1 to 419 (419 amino acids); also called 6XHis-N protein; FL N protein; not shown: His6, N-terminal, kept
The assay is described as follows: pull-down. Conditions: both partners purified.

Assay [2] deals with T1, SARS-CoV-2 nucleocapsid (N) protein, …. Nature of the assay: MST; RED-NHS-labelled hnRNPA1 (5 nM) titrated with N protein, NTD, CTD or LKR+CTD; 16 two-fold dilutions from 100 μM; Monolith NT.115; single-site binding model; triplicates. Conditions: both partners purified.

B1: N-terminally GST-tagged human hnRNPA1 (natural protein, UniProt P09651-2 1-320, looked up)
chain: MSKSESPKEPEQLRKLFIGGLSFETTDESLRSHFEQWGTLTDCVVMRDPNTKRSRGFGFVTYATVEEVDAAMNARPHKVDGRVVEPKRAVSREDSQRPGAHLTVKKIFVGGIKEDTEEHHLRDYFEQYGKIEVIEIMTDRGSGKKRGFAFVTFDDHDSVDKIVIQKYHTVNGHNCEVRKALSKQEMASASSSQRGRSGSGNFGGGRGGGFGGNDNFGRGGNFSGRGGFGGSRGGGGYGGSGDGYNGFGNDGSNFGGGGSYNDFGNYNNQSSNFGPMKGGNFGGRSSGPYGGGGQYFAKPRNQGGYGGSSSSSSYGSGRRF
notes: human hnRNPA1; Prey of the Ni-NTA pull-down; The general purification method names only Ni-NTA and SEC; also called GST-hnRNPA1; source: E. coli, purified; not shown: GST, N-terminal, kept
As for B1, the binding result in assay [1] is reported as “binds”.

B2: human hnRNPA1, full-length (residues 1 to 320), fluorescently labelled (natural protein, UniProt P09651-2 1-320, looked up)
chain: MSKSESPKEPEQLRKLFIGGLSFETTDESLRSHFEQWGTLTDCVVMRDPNTKRSRGFGFVTYATVEEVDAAMNARPHKVDGRVVEPKRAVSREDSQRPGAHLTVKKIFVGGIKEDTEEHHLRDYFEQYGKIEVIEIMTDRGSGKKRGFAFVTFDDHDSVDKIVIQKYHTVNGHNCEVRKALSKQEMASASSSQRGRSGSGNFGGGRGGGFGGNDNFGRGGNFSGRGGFGGSRGGGGYGGSGDGYNGFGNDGSNFGGGGSYNDFGNYNNQSSNFGPMKGGNFGGRSSGPYGGGGQYFAKPRNQGGYGGSSSSSSYGSGRRF
modifications: RED-NHS 2nd generation dye
notes: human hnRNPA1, full-length, residues 1 to 320 (320-residue form); Labelled protein of the MST titrations (5 nM); also called full length hnRNPA1; source: E. coli Rosetta (DE3), purified (Ni-NTA, SEC)
For B2, the Kd (usually the constant that tells how readily two partners part at equilibrium) in assay [2] is roughly 180 nM.
